{"source": "paper PMC10334339", "substrate": "O=c1[nH]c(=O)n([C@H]2C[C@H](O)[C@@H](COP(=O)(O)O)O2)cc1CO", "assay": "purified protein", "type": "biochemical, Homo sapiens", "data": [{"protein": "2′-Deoxynucleoside 5′-monophosphate N-glycosidase 1 (DNPH1) (Homo sapiens) (protein) AAAMVPGRSESWERGEPGRPALYFCGSIRGGREDRTLYERIVSRLRRFGTVLTEHVAAAELGARGEEAAGGDRLIHEQDLEWLQQADVVVAEVTQPSLGVGYELGRAVAFNKRILCLFRPQSGRVLSAMIRGAADGSRFQVWDYEEGEVEALLDRYFEADPPGQVAASPDPTT", "values": [{"measurement": "Km", "value": "6.3 ± 0.5", "unit": "µM"}]}]}
